{"source": "paper PMC2919055", "about": "(Proteins, 2010)", "proteins": {"B1": {"name": "C-MBD of A. fulgidus CopA with carboxymethylated cysteines (domain or fragment, Archaeoglobus fulgidus, UniProt O29777 736-804, looked up)", "chain": "GDSVEKIVLELSGLSC(Carboxymethyl)HHC(Carboxymethyl)VARVKKALEEAGAKVEKVDLNEAVVAGNKEDVDKYIKAVEAAGYQAKLRS"}}, "target": "the molecule itself", "experiment": "cross-linking", "note": "Values joined by “and” are separate entries in the source; they are usually repeats but may differ in a detail not shown here. Equal values may be shown once. *: point of attachment. Carboxymethyl = O=C(O)C*"}
{"protein": "B1", "values": [{"measurement": "stoichiometry N", "value": "2 and 4"}]}
